Test results: the supplement of paper PMC12042874
± gives the uncertainty stated by the source.

Assay: amyloid nucleation score (Sup35N fusion, yeast selection) (log enrichment); library NNK2; higher = more nucleation; inactive = no reads after selection
Outline: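 On medium lacking adenine and uracil, psi-negative yeast expressing peptides of 20 random codons fused to Sup35N were grown 7 days at 30°C after a 24-hour induction with 100 μM copper sulfate. Illumina sequencing of input and output plasmid inserts gave the reads, and sequences under 100 input reads were excluded. The nucleation score is the DiMSum log enrichment of output over input reads, centred on the mode score of non-aggregating sequences.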

Substance	amyloid nucleation score
VVLRHHLFSSALYICMRGIQ	inactive
VVLRVLISFSHSTIRLEGLV	2.84 ± 0.093
VVMNLMEFMVRVSVLDNAEG	4.47 ± 0.075
VVQQLIRKITVFSLRLVLNK	4.16 ± 0.073
VVRGIRVTR	0.116 ± 0.28
VVRKGCL	-0.86 ± 1.1
VVRMVHLSADFQGK	5.26 ± 0.095
VVRSRW	0.372 ± 0.42
VVRYLPCRRLPVWWVVCYEI	0.488 ± 0.29
VVSGTLKKMGVFGTSAIISE	0.494 ± 0.8
VWELDRVVR	0.783 ± 0.53
VWFFGSYHVCWDCTF	0.378 ± 0.74
VWKNPYIGVHLLHDLKS	-0.391 ± 0.21
VWLDIYSQLEDENVYSSYLD	2.44 ± 0.086
VWLGVTSSPIIMSKNMSNVV	0.404 ± 0.36
VWLSFRVYLVMTSVLVILNC	1.13 ± 0.11
VWLTMKVAILPCSQRIEKMV	1.47 ± 0.38
VWLYKSLIINFDSKWRLS	6.268 ± 0.034
VWPQCYLSLVF	-0.082 ± 0.49
VWTLYYHHIGSAFSTCNRLF	4.5 ± 0.062
VWTSIYDFSLWADYGQK	-1.58 ± 1.1
VWVRIQMWYDIMSSASQLYR	0.446 ± 0.33

Substance	amyloid nucleation score
VWVRMRKAVGAVHYRDLRSS	8.893 ± 0.075
VWVWCFR	8.331 ± 0.042
VWWFPRLPIPKESVIINGLS	inactive
VWYSDDWSWWGARRLCKNRR	0.236 ± 1.1
VYDQIYGRLANRLVHNKWRR	-0.341 ± 0.55
VYGLVL	0.011 ± 0.45
VYKFEKESLLTLSHIHKVAS	-0.012 ± 1.1
VYLRMSFYYGKRP	4.12 ± 0.044
VYLSSLDSRMRLSTCFRE	-0.19 ± 0.35
VYNTFLREFHS	1.99 ± 0.13
VYPFSLSVAYVNRLLYYTVQ	2.14 ± 0.094
VYQYWYIAISLRGRPGQCRL	4.06 ± 0.05
VYRSRAVHATSLGSERFNTD	5.17 ± 0.1
VYSLYNDRYYC	-0.406 ± 0.31
VYVFYVSIKVAVFTLTM	3.92 ± 0.041
VYYASDNWYLAYRWEGRRFN	0.821 ± 0.27
VYYTVVCGDDRRCIKMCKFC	5.327 ± 0.032
VYYVWRNCLSDCLYYILTYF	-2.05 ± 0.78
WAGRCDHK	0.227 ± 0.25
WAKCRLTIMTKWSLLCGGLG	1.43 ± 0.34
WAPFMGVSKSTQTARTGMVM	-0.146 ± 0.61
WARCHVLA	-0.292 ± 0.55

Substance	amyloid nucleation score
WASFTSACRRLLSPCTPRSG	5.22 ± 0.1
WASIQVDRSLGCNIFWLLQ	3.73 ± 0.11
WCGYMNSSIKSRYSTYTFRS	2.13 ± 0.088
WCIFL	4.87 ± 0.087
WCLMQSFDGLSDME	0.561 ± 0.62
WCRAWGDFIMVKSLGLKCIA	-0.1 ± 0.49
WCTIHYDLMLVVRTNSSRSI	1.08 ± 0.18
WDCAWVLGLVAEGRLT	6.09 ± 0.039
WDNHYRIKYCG	inactive
WDPQCGSLPFFLLNAEAFET	inactive
WDQCLMLMCPNE	-0.291 ± 0.64
WDSRDLMC	0.344 ± 0.39
WDTLARYSGIQLVFE	-0.974 ± 0.55
WDVIELF	-1.4 ± 1.1
WEASCVNPH	-0.191 ± 0.65
WECYLFFCDIVGVGVHWRSS	-0.824 ± 0.42
WFCVVVMFGRRVDNLDKLVF	-1.33 ± 0.54
WFIGS	inactive
WFIRIAIMARSFCIIALVPR	-1.22 ± 0.47
WFIWNVENR	7.15 ± 0.08
WFMRDMEYFPDGLGDYG	inactive
WFMSIMSKYCRVSF	-0.149 ± 0.79

Substance	amyloid nucleation score
WFMSKAYVTSCALFSRVIHT	0.914 ± 0.43
WFSDIKSPASLLVSVVVVM	0.272 ± 0.57
WFSRFSFCRKHYLTVNNWGL	-0.566 ± 0.49
WGCNSNELSCRLYVVNYSGW	-0.251 ± 0.56
WGCWTVRSTT	0.92 ± 0.46
WGDIDF	-0.385 ± 0.64
WGDRLSVKFMCVDALGRVNL	0.019 ± 0.56
WGFIAVDGRPIVASLRYSMR	3.51 ± 0.084
WGHLVWGNTRCLGG	0.016 ± 1.1
WGNGLSFTAACLLVLLKRNS	2.2 ± 0.16
WHCLLGLNYLFGYVSYSTSW	4.99 ± 0.098
WHGRCWTSAKLAYRTRKTMC	1.86 ± 0.17
WHGVDVIVRLMVAHPLGRTS	4.36 ± 0.11
WHMLHRVDKAISFSLSCCGR	7.81 ± 0.084
WHSTVSLWSHPFPHKATKEP	0.256 ± 0.42
WHWISAYCTFICRKVLKEMP	0.478 ± 0.4
WIFSPGLMDFVEHDNLEWIA	0.67 ± 0.44
WIKLAFDWKQF	-1.18 ± 0.55
WIWVMWNKLCDSPDVWLANW	0.816 ± 0.51
WIYSFTMFATWTNVT	0.092 ± 0.79
